Measurements taken from patent US20220323599A1, “ANTI-BCMA ANTIBODY CONJUGATE, COMPOSITIONS COMPRISING THE SAME, AND METHODS OF MAKING AND USING THE SAME” (CELGENE CORPORATION, priority 2019, published 2022).

Assays:
[1] = target: human BCMA on cells (endogenous on multiple myeloma cell lines; stably transfected 293T-hBCMA) (human) (UniProt Q02223); assay: cell-based or functional assay
[2] = target: human BCMA on cells (endogenous on multiple myeloma cell lines; stably transfected 293T-hBCMA) (human) (UniProt Q02223); assay: flow cytometry, ARP-1 cells
[3] = target: cynomolgus BCMA on stably transfected 293T cells (cynomolgus monkey); assay: flow cytometry, 293T-cBCMA cells
[4] = target: human BCMA on cells (endogenous on multiple myeloma cell lines; stably transfected 293T-hBCMA) (human) (UniProt Q02223); assay: flow cytometry, 293T-hBCMA cells
[5] = target: Recombinant human BCMA ECD protein (Acro Biosystems) (human) (UniProt Q02223); assay: competition ELISA on coated human BCMA ECD, competitor BAFF at 1 ng/ml, Experiment No. 1
Chain of Recombinant human BCMA ECD protein (Acro Biosystems) (human) (Q02223 1-54 limits assumed): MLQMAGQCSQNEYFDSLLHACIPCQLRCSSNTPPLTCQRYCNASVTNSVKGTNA

Chain of human BCMA on cells (endogenous on multiple myeloma cell lines; stably transfected 293T-hBCMA) (human) (Q02223 whole entry, the tested form may be a part): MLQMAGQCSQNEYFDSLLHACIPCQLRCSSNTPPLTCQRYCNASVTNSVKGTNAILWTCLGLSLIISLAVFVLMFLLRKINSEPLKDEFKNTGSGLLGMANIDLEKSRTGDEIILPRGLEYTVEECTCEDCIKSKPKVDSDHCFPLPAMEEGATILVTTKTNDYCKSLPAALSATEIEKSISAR
Chain of cynomolgus BCMA on stably transfected 293T cells (cynomolgus monkey) (Q02223 other isoform, or with tags, fused parts or gaps): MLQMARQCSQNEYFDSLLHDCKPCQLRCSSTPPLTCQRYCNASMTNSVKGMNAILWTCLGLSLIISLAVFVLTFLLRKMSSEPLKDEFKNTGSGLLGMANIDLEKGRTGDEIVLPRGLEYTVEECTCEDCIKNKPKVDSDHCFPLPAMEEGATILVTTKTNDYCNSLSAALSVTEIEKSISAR

## Conjugate 1: anti-BCMA antibody J6M0 conjugated to maleimido-caproyl monomethyl auristatin F (mc-MMAF), surrogate ADC for GSK2857916
[1]
  cell killing EC50, ARP-1: 0.52 nM
  cell killing EC50, ARP-1, no competing reagent: 0.6 nM
  cell killing EC50, MM.1S: 0.68 nM
  cell killing EC50, NCI-H929: 0.29 nM
  cell killing EC50, NCI-H929, Experiment 1: 0.2 nM
  cell killing EC50, NCI-H929, Experiment 2: 0.2 nM
  cell killing EC50, NCI-H929, no competing reagent: 0.4 nM
  cell killing EC50, OPM2, Experiment 1: 0.8 nM
  cell killing EC50, OPM2, Experiment 2: 0.9 nM
  cell killing EC50, OPM2, no competing reagent: 2.3 nM
  cell killing EC50, OPM-2: 1.4 nM
  cell killing EC50, U266B1: 0.32 nM
  cell killing EC50, U266B1, Experiment 1: 0.2 nM
  cell killing EC50, U266B1, Experiment 2: 0.3 nM
  cell killing EC50, U266B1, no competing reagent: 0.4 nM
  cell killing Span, ARP-1: 95%
  cell killing Span, ARP-1, no competing reagent: 97%
  cell killing Span, MM.1S: 86%
  cell killing Span, NCI-H929: 91%
  cell killing Span, NCI-H929, Experiment 1: 85%
  cell killing Span, NCI-H929, Experiment 2: 86%
  cell killing Span, NCI-H929, no competing reagent: 86%
  cell killing Span, OPM2, Experiment 1: 95%
  cell killing Span, OPM2, Experiment 2: 94%
  cell killing Span, OPM2, no competing reagent: 92%
  cell killing Span, OPM-2: 93%
  cell killing Span, RPMI-8226: 40%
  cell killing Span, U266B1: 90%
  cell killing Span, U266B1, Experiment 1: 85%
  cell killing Span, U266B1, Experiment 2: 84%
  cell killing Span, U266B1, no competing reagent: 90%
[2]
  Bmax: 45 MFI
  Kd: 2.4 nM
[3]
  Bmax: 981 MFI
  Kd: 8.6 nM
[4]
  Bmax: 856 MFI
[5]
  IC50: 7 nM
